Data published in patent US20210363232A1 (Eli Lilly, published 2021).
Where a chain is given by its changes, count along the chain named.

T1: Cyno IL-34 (cyno (cynomolgus monkey), UniProt G7Q1L3 21-242)
T1 construct: also called cynomolgus IL-34
T1 sequence: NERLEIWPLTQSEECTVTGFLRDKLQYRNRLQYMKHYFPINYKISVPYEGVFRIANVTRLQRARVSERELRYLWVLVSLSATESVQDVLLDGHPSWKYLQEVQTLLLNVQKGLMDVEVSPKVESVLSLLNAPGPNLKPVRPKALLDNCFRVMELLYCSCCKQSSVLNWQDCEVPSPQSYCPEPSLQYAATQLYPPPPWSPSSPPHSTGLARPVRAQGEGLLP

T2: Mouse IL-34 (mouse, UniProt Q8R1R4 21-235)
T2 construct: NCBI NP_001128572.1 is printed; also called Murine IL-34
T2 sequence: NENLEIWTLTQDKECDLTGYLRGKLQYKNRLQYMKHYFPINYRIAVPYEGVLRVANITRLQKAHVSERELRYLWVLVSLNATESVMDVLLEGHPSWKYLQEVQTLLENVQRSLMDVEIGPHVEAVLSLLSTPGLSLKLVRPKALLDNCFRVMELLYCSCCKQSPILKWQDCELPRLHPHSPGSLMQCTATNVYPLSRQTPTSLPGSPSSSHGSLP

B1: mature Human IL-34 (ligand)
chain: NEPLEMWPLTQNEECTVTGFLRDKLQYRSRLQYMKHYFPINYKISVPYEGVFRIANVTRLQRAQVSERELRYLWVLVSLSATESVQDVLLEGHPSWKYLQEVETLLLNVQQGLTDVEVSPKVESVLSLLNAPGPNLKLVRPKALLDNCFRVMELLYCSCCKQSSVLNWQDCEVPSPQSCSPEPSLQYAATQLYPPPPWSPSSPPHSTGSVRPVRAQGEGLLP
notes: if the entry is the precursor, residues 21-242 apply; NCBI NP_689669.2 is printed; also called hIL-34; h IL-34
B2: Antibody 1 (antibody, human IgG4 S228P, kappa, F234A L235A, V domains shown)
VH: EVQLLESGGGLVQPGGSLRLSCAASGFTFSSYATSWVRQAPGKGLEWVSAISHSGRSTYYADSVKGRFTISRDNSKNTLYLQMNSLRAEDTAVYYCARGRSSLDTWGQGTLVTVSS
VL: EIVLTQSPGTLSLSPGERATLSCRASQSISSAYLAWYQQKPGQAPRLLIYASSIRPTGIPDRFSGSGSGTDFTLTISPLEPEDFAVYYCSQYGDSLSFGGGTKVEIKR
notes: Human anti-human IL-34 antibody with a modified IgG4 (IgG4PAA) heavy chain and kappa light chain; also called Exemplified Antibody 1
B3: Antibody 3 (antibody, mouse IgG1, kappa, V domains shown)
VH: B2 VH with S31Y, T34M, S54R, R56G, Y59L, T105G, L111M
VL: B2 VL with T10I, T20S, Q27T, I29V, I54H, T57L, P78R, S90Q
notes: Antibody optimised against mouse IL-34; The printed constant regions look murine, and a mIgG1 control is used in vivo; also called Exemplified Antibody 3
B4: Antibody 2 (antibody, human IgG4 S228P, kappa, F234A L235A, V domains shown)
VH: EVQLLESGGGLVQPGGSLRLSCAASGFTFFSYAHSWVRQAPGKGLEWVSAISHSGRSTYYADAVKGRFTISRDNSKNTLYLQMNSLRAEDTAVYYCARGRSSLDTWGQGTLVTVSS
VL: B2 VL
notes: Shares its light chain with Antibody 1; Modified IgG4 heavy chain; also called Exemplified Antibody 2

How the values were obtained:
[1] = molecular target: T3, Human CSF1R Fc fusion protein (Exemplified compound D) (human, UniProt P07333 20-512, limits assumed); assay: MSD solution equilibrium titration at 37 C; fixed Fc fusion, IL-34 titrated, free protein captured on IL-34-coated plate; mean ± STDEV, n = 5
T3 construct: Made in house and purified by MabSelect SuRe and size exclusion; also called hCSF1R-Fc; Exemplified compound D (hCSF1R-Fc); not shown: Fc part

mature Human IL-34 [2] = molecular target: B1; assay: cell-based or functional assay
mature Human IL-34 [3] = molecular target: B1; assay: MSD solution equilibrium titration at 37 C; fixed antibody, IL-34 titrated, free antibody captured on IL-34-coated plate; mean ± STDEV, n = 5
Protocol: (§1) Briefly, usually a 2-fold or 3-fold dilution series of human, cyno or mouse IL-34 is prepared from a starting concentration of 40, or 50 or 60 or 80 or 100 or 120 nM to 100 fM; and each series includes an IL-34 blank control. Samples are prepared in 3% (w/v) Blocker A solution (MSD®, #R93AA-1) and a fixed final concentration of 5-50 pM of each exemplified antibody in Table 1 is added to each sample. An antibody only control is included. A volume of 50 μl of each protein-antibody sample is added to individual wells of a 96-well microtiter plate (Greiner, EK-20101). The plate is sealed with optical adhesive film (Thermo Fisher Scientific, #4311971) and incubated at 37° C. for 1-3 days to allow for sample equilibrium. On the day before analysis, each row of a 96-well MSD® Standard plate (MSD®, #L15XA) is coated with 30 μl of the corresponding IL-34 (as used in the titration series) at a concentration of 1 μg/ml in phosphate buffered saline (PBS). […] The plate is washed three more times with PBST followed by the addition of 150 μl/well of 1× Read buffer (MSD®, #R92TC-2). The MSD® Standard plate is read using a MESO Quickplex SQ 120/1300 instrument (Meso Scale Discovery).

mature Human IL-34 [4] = molecular target: B1; assay: cell-based or functional assay; remark: listed apart in the source
Cyno IL-34 [5] = molecular target: T1, Cyno IL-34; assay: MSD solution equilibrium titration at 37 C; fixed antibody, cyno IL-34 titrated; mean ± STDEV, n = 5
Protocol: as §1

Cyno IL-34 [6] = molecular target: T1, Cyno IL-34; assay: cell-based or functional assay
Mouse IL-34 = molecular target: T2, Mouse IL-34; assay: MSD solution equilibrium titration at 37 C; fixed antibody, mouse IL-34 titrated
Protocol: as §1

[7] = molecular target: IL-34 (species not stated); assay: cell-based or functional assay

T3 sequence (P07333 20-512 limits assumed): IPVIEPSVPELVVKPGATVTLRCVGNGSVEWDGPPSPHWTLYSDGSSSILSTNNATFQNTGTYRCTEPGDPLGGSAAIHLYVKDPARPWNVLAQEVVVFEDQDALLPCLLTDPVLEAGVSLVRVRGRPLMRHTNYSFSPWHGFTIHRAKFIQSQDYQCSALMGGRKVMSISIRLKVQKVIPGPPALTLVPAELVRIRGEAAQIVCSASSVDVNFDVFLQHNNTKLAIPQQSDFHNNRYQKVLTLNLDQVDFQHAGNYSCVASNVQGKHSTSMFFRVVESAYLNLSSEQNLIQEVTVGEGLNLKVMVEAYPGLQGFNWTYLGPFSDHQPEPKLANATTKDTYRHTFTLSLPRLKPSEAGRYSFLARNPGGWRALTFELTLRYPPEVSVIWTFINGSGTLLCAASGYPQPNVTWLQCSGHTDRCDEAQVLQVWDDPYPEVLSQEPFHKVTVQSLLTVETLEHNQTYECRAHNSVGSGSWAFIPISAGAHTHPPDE

Q: For B1, which Kd [1] is on record?
A: 0.056 nM

Q: With B2 as the binder, how does the “IC50; neutralization of human IL-34 induced luciferase reporter activity, hCSF1R 293 SRE cells” value (mature Human IL-34 [2]) read?
A: 0.385 nM

Q: What about the Kd (mature Human IL-34 [3]) of the same binder?
A: 0.059 nM

Q: And the “IC50; inhibition of human IL-34 induced CSF1R dimerization, PathHunter eXpress assay” value (mature Human IL-34 [4])?
A: 0.226 nM

Q: And the Kd (Cyno IL-34 [5])?
A: 0.108 nM

Q: And the “IC50; neutralization of cyno IL-34 induced luciferase reporter activity, hCSF1R 293 SRE cells” value (Cyno IL-34 [6])?
A: 0.654 nM

Q: How did the Kd (Mouse IL-34) turn out when B3 was run?
A: 0.016 nM

Q: What about the “IC50; inhibition of IL-34 induced ERK phosphorylation in NIH-3T3/CSF1R cells” value [7] of the same binder?
A: 15.7 nM

Q: Which results are given for B4?
A: Kd (mature Human IL-34 [3]): 0.054 nM; Kd (Cyno IL-34 [5]): 0.152 nM
